Results reported in patent publication US20260226154A1 (CEPHALON, published 2026).

Key:
PACAP38 [1] = biological target: T1, PACAP38 (human, not fully specified); experiment: cell-based or functional assay
T1 peptide: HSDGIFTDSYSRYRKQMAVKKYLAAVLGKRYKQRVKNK

PACAP38 [2] = biological target: T1, PACAP38; experiment: cell-based or functional assay
PACAP38 [3] = biological target: T1, PACAP38; experiment: cell-based or functional assay
PACAP38 [4] = biological target: T1, PACAP38; experiment: cell-based or functional assay
VIP [5] = biological target: T2, VIP (human); experiment: cell-based or functional assay
T2 peptide: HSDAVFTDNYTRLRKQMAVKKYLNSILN

VIP [6] = biological target: T2, VIP; experiment: SPR (Biacore), 37 C, captured antibody; target VIP
Procedure: (§1) In brief, antibody and peptide interaction was determined on a Biacore S200 (GE Healthcare) by method previously described (Andreu and Gomes 2002). An anti-Human IgG Fc capture antibody was immobilized on a CM5 biosensor chip via standard amine coupling. Anti-PACAP antibodies were injected and captured to 200 to 400 response units (RU),). PACAP38, PACAP27 and VIP were diluted in HBS-EP+ buffer containing 0.1% w/v BSA (Bovostar, catalog number BSAS1.0) and 0.15 M NaCl (Sigma-Aldrich catalog number S7653), pH 7.4. Binding kinetics of antibodies were determined by injection of two-fold serial dilutions of PACAPs (12 nm to 0 nM) and VIP (1200 nM to 0 nM) in running buffer at 37° C. with a flow rate of 40 μL/min for 2 min followed by a dissociation for 10 minutes. For subsequent cycles, the chip was regenerated using 0.85% phosphoric acid. Data was analysed with the Biacore S200 Evaluation Software (ver 1.0). Association rate (kₐ) and dissociation rate (kd) constants were determined using a simple one-to-one Langmuir binding model and used to calculate the equilibrium dissociation constant (KD).
(§2) The selectivity of antibody 890C was assessed by comparing the inhibition of PACAP38-signalling to inhibition of VIP-signalling in a cyclic AMP (cAMP) measuring cell-based functional assay.

PACAP27 = biological target: T3, PACAP27 (human, not fully specified); experiment: SPR (Biacore), 37 C, captured antibody; target PACAP27
T3 peptide: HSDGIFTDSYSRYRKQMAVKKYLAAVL
Procedure: as §1, §2

PACAP38 [7] = biological target: T1, PACAP38; experiment: SPR (Biacore), 37 C, captured antibody; target PACAP38
Procedure: as §1, §2

PACAP38 [8] = biological target: T1, PACAP38; experiment: SPR (Biacore), 37 C, antibody captured via anti-human Fc, peptide analyte
Procedure: as §1

PACAP38 [9] = biological target: T1, PACAP38; experiment: SPR (Biacore S200) off-rate ranking, antibody captured from supernatant, single injection of 33.3 nM PACAP38
Procedure: as §1, with “Binding kinetics of antibodies were determined by injection of two-fold serial dilutions of PACAPs (12 nm to 0 nM) and VIP (1200 nM to 0 nM) in running buffer at 37° C. with a flow rate of 40 μL/min for 2 min followed by a dissociation for 10 minutes.” left out

GRF = biological target: T4, GRF; experiment: SPR (Biacore) at 37 C, captured antibody, 37.5 nM peptide, relative response after 15 sec dissociation
T4 construct: also called GHRF; Growth Hormone Releasing Factor
T4 peptide: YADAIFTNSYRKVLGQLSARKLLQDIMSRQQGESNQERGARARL
Procedure: (§3) The anti-PACAP antibodies, e.g., 890C, were tested against related peptides in the Secretin Glucagon family (Table 19) to determine the presence and extent of any off-target binding. Nine bioactive peptides in the glucagon superfamily are: PACAP, VIP, glucagon, Glucagon-Like Peptides (GLP-1, GLP-2), Growth Hormone Releasing Factor (GRF or GHRF), Peptide Histidine Methionine (PHM), secretin, and Gastric inhibitory polypeptide (GIP). Following capture of antibodies as described in example 4, the antibody and the peptide interaction was measured by injection of 37.5 nM of each peptide diluted in buffer at 37° C. with a flow rate of […] for 2 min followed by a dissociation phase of 4-5 min. Samples were injected in a multi-cycle manner over freshly captured anti-PACAP antibody, by regenerating the capture surfaces with two injections of 0.85% phosphoric acid at a flow rate of 30 μL/min.
as §2

PHM = biological target: T5, PHM; experiment: as above
T5 construct: also called Peptide Histidine Methionine
T5 peptide: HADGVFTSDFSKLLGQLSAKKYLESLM
Procedure: as §3, §2

Secretin = biological target: T6, Secretin; experiment: as above
T6 peptide: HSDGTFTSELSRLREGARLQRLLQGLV
Procedure: as §3, §2

Glucagon = experiment: as above
Sequence of Glucagon (peptide, as listed by the source): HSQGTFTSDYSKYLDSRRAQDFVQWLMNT
Procedure: as §3, §2

GIP = biological target: T7, GIP; experiment: as above
T7 peptide: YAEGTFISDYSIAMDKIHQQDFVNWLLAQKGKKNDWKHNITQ
Procedure: as §3, §2

GLP-1 = biological target: T8, GLP-1; experiment: as above
T8 construct: also called Glucagon-Like Peptide 1
T8 peptide: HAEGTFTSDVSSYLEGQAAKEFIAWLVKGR
Procedure: as §3, §2

GLP-2 = biological target: T9, GLP-2; experiment: as above
T9 construct: also called Glucagon-Like Peptide 2
T9 peptide: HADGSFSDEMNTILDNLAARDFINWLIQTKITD
Procedure: as §3, §2

B1: 890C (antibody, human IgG2, kappa, V domains shown)
VH: EVQLVQSGAEVKKPGSSVKVSCKASGGTFSDVYMHWVRQAPGQGLEWMGLIYPIFADTRYAQKFQGRVTITADESTSTAYMELSSLRSEDTAVYYCAIDQDGSFAYWGQGTLVTVSS
VL: DIVMTQSPDSLAVSLGERATINCKSSQSLLDADGKTYLNWLQQKPGQPPKRLIYWASTRESGVPDRFSGSGSGTDFTLTISSLQAEDVAVYYCWQGTWFDLTFGGGTKVEIKR
notes: Full chains as named '890C heavy chain' / '890C light chain' (IgG2DASS, kappa); also called anti-PACAP antibody 890C
- selectivity, inhibition of PACAP38-induced cAMP production (CHO-K1, PAC1 receptor) versus VIP-induced cAMP production (CHO-K1, VPAC1 receptor) (PACAP38 [1]): > 1000 fold
- PACAP-38 IC50 (PACAP38 [2]): 0.32 nM
- IC50 (nM), PACAP-induced cAMP accumulation, CHO-K1 cells, cAMP-Glo (PACAP38 [3]): 0.32 nM
- IC50 (read off the curve), PACAP-induced cAMP production, CHO-K1 cells expressing PAC1 (PACAP38 [4]): ~0.4 nM
- fold shift between the PACAP/PAC1 and the VIP/VPAC1 inhibition curves (selectivity for PACAP over VIP) (PACAP38 [4]): 1400 fold
- IC50 (read off the curve), VIP-induced cAMP production, CHO-K1 cells expressing VPAC1 (VIP [5]): ~600 nM
- Kd (VIP [6]): 390 nM
- Kd (PACAP27): 0.218 nM
- Kd (PACAP38 [7]): 0.054 nM
- Kd (PACAP38 [8]): 0.0284 nM
- koff (PACAP38 [8]): 0.000671 s⁻¹
- kon (PACAP38 [8]): 2.36e+07 M⁻¹ s⁻¹
- Kd (PACAP38 [9]): 0.0284 nM
- koff (PACAP38 [9]): 0.000671 s⁻¹
- kon (PACAP38 [9]): 2.36e+07 M⁻¹ s⁻¹
- binding result (GRF): no binding (tested: 37.5 nM)
- binding result (PHM): no binding (tested: 37.5 nM)
- binding result (Secretin): no binding (tested: 37.5 nM)
- binding result (Glucagon): no binding (tested: 37.5 nM)
- binding result (GIP): no binding (tested: 37.5 nM)
- binding result (GLP-1): no binding (tested: 37.5 nM)
- binding result (GLP-2): no binding (tested: 37.5 nM)
